# Results published in paper PMC6444592, “Citrullination of HP1γ chromodomain affects association with chromatin” (Epigenetics & Chromatin, 2019).
# Molecular target: H3K9me3(1–16) peptide
substance,measurement,value
"GST-HP1γWT (recombinant full-length mouse heterochromatin protein 1 gamma, wild type) (from UniProt P23198 1-183) (natural protein)",HP1γ citrullination by PADI4 in the in vitro citrullination assay with added H3K9me3 peptides (immunoblot with anti-peptidyl-citrulline antibody; fold change against unmethylated H3 peptide),2 fold
